Measured values as given in patent publication US20150359847A1, “METHOD AND COMPOSITION FOR CONFERRING NEUROPROTECTION” (BLOOD SYSTEMS RESEARCH INSTITUTE, priority 2014, published 2015).

Experiments:
MMP-9 [1] = target: T1, MMP-9 (Homo sapiens, UniProt P14780); assay: cell-based or functional assay
Target sequence in this assay (P14780 107-707 limits assumed): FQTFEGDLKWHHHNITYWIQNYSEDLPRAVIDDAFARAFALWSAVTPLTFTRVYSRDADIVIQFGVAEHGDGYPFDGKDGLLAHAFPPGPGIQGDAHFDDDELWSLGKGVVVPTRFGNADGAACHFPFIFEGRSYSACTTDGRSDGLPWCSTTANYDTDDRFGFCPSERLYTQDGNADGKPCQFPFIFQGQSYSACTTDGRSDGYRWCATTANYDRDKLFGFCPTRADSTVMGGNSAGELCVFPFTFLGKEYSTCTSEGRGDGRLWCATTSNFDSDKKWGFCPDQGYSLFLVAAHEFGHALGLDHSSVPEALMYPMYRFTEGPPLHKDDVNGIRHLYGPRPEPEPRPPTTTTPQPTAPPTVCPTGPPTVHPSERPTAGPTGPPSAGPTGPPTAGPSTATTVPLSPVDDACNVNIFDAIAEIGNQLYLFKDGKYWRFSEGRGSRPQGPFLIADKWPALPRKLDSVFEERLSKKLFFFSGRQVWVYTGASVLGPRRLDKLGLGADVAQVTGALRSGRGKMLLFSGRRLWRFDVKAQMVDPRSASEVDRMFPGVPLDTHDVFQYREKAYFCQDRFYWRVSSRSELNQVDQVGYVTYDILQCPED

MMP-2 [2] = target: MMP-2 (UniProt P08253); assay: cell-based or functional assay
[3] = test system: S6 Ribosomal Protein (S235/236) in SH-SY5Y cells; assay: S6 Ribosomal Protein (S235/236) phosphorylation in SH-SY5Y cells; format: cell-based, human; conditions: 10 μM GM6001, 15 minutes
Procedure: (§1) SH-SY5Y cells were obtained from ATCC (Cat# CRL-2266, Manassas, Va.) and were cultured in DMEM and 10% FBS up to passage 10. For differentiation of SH-SY5Y cells into a neuronal phenotype, cells were first plated in DMEEM+10% FBS for 24 hrs before exchanging media in DMEM+1% FBS 10 μM retinoic acid. Differentiation was performed for 3 days before experimentation. Hippocampal neurons were prepared according to the protocol by Beaudoin et al. (Nature Protocols 2012; 7(9):1741-1754) with minor modifications. In brief, after trypsin digestion of hippocampi isolated from P1 mouse pups single cell suspensions was created by trituration and plated onto Biocoat™ poly-D-lysine coated 12-well plates (Cat#354470, BD Biosciences, San Jose, Calif.). 2 pups were used per well and cell suspensions were incubated for 10 minutes per well for a total of 6 wells. The serial incubation allowed for variation in cell densities applicable to different experiments but also contributed to the reduction in non-neuronal cells. […]
(§2) Pathscan Antibody™ array kits were purchased from Cell Signaling Technologies (Danvers, Mass.). PathScan® RTK signaling antibody array kit (Fluorescent Readout, Cat#7949) and PathScan™ Akt signaling antibody array kit (Fluorescent Readout, Cat#9700) were performed as per manufacturer's instructions. Imaging was performed on a LI-COR Odyssey™ infrared scanner and pixel densities measured by in house LI-COR Image™ suite software.
Cell lysates for western blotting were prepared with RIPA buffer (Cat#89900. Thermofisher Scientific, Rockford, Ill.) supplemented with phosphatase inhibitor cocktail 2 (Cat# P5726. Sigma, St Louis, Mo.), phosphatase inhibitor cocktail 3 (Cat# P0044. Sigma, St Louis, Mo.) and complete protease inhibitor (Cat#1862209. Thermofisher Scientific, Rockford, Ill.). […] Protein content was quantified with a Pierce BCA protein assay kit per manufacturer's instructions (Cat#23225. Thermofisher Scientific, Rockford, Ill.).
(§3) Lysates was analyzed in conjuncture with the LI-COR Odyssey™ infra-red imaging system. […]

MMP-2 [4] = target: T2, MMP-2 (Homo sapiens, UniProt P08253); assay: SensoLyte Fluorimetric MMP-2 Activity Assay; format: biochemical; conditions: GM6001
T2 sequence (P08253 110-660): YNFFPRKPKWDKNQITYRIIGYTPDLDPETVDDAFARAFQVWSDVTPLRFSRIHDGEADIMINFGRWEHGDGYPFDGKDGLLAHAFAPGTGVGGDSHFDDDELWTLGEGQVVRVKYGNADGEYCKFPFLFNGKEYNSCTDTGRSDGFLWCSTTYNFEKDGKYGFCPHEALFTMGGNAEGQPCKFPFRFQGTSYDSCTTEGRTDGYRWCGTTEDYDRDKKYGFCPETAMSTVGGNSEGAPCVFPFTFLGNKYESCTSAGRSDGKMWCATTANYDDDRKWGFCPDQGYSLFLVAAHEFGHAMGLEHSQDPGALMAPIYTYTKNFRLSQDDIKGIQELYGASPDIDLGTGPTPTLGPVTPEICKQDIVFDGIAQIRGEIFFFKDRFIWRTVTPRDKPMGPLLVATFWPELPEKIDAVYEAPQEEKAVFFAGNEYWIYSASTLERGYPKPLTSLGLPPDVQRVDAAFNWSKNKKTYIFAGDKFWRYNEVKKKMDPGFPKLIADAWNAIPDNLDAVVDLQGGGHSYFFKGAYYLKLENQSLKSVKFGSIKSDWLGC
Text: (§4) SensoLyte Fluorimetric MMP-2 Activity Assay Kit™ (Cat#71151) and SensoLyte Fluorimetric MMP-9 Activity Assay Kit™ (Cat#71155) were purchased from AnaSpec (Fremont, Calif.) and performed per manufacturer's instructions.

[5] = test system: phospho-AKT(Ser473) in SH-SY5Y cells; assay: Akt (Ser473) phosphorylation in differentiated SH-SY5Y cells (antibody array, western blot, Phosflow); format: cell-based, human
Procedure: SH-SY5Y cells were obtained from ATCC (Cat# CRL-2266, Manassas, Va.) and were cultured in DMEM and 10% FBS up to passage 10. For differentiation of SH-SY5Y cells into a neuronal phenotype, cells were first plated in DMEEM+10% FBS for 24 hrs before exchanging media in DMEM+1% FBS 10 μM retinoic acid. Differentiation was performed for 3 days before experimentation. Hippocampal neurons were prepared according to the protocol by Beaudoin et al. (Nature Protocols 2012; 7(9):1741-1754) with minor modifications. In brief, after trypsin digestion of hippocampi isolated from P1 mouse pups single cell suspensions was created by trituration and plated onto Biocoat™ poly-D-lysine coated 12-well plates (Cat#354470, BD Biosciences, San Jose, Calif.). 2 pups were used per well and cell suspensions were incubated for 10 minutes per well for a total of 6 wells. The serial incubation allowed for variation in cell densities applicable to different experiments but also contributed to the reduction in non-neuronal cells. Typically wells 1-2 were pooled for western blotting and wells 4-5 were used for imaging following treatments. After the initial plating cells were incubated for 2 hrs before media was completely exchanged for maintenance media that was supplemented with 1 μM of the anti-mitotic cytosine arabinoside in order to further reduce non-neuronal cells. For western blot, cells were cultured for 7 days before experimentation. Half of maintenance media was exchanged on day 2 and day 5. For morphology experiments, treatments were initiated upon the introduction of maintenance media and was renewed 48 hrs later for a further 24 hrs of treatment. Experiments were terminated by fixation for 20 minutes with 4% paraformaldehyde after which cells were stored at 4° C. in PBS prior to staining protocols.
as §2
After experimentation, SH-SY5Y cells were detached from culture ware via trypsin digestion and rapidly mixed with an equal volume of BD cytofix fixation buffer (Cat#554655. BD Biosciences, San Jose, Calif.). After wash steps with PBS cells were permeabilized with BD phosflow Perm Buffer III (Cat#558050. BD Biosciences, San Jose, Calif.) and incubated on ice for 30 mins. After washing in BD stain buffer (Cat#554657. BD Biosciences, San Jose, Calif.) cells were counted and 1×10^6 cells were used antibody incubation. Negative IgG compensation control was obtained using ABC control beads (Cat# A10344. Life Technologies, Grand Island, N.Y.). Antibody incubations were conducted for 30 mins at RT in the dark. Following wash steps the volume was adjusted to 500 μl and results obtained using and LSR II flow cytometer and analyzed using Flowjo™ cytometric analytical software version 8.8.7.
Cell lysates for western blotting were prepared with RIPA buffer (Cat#89900. Thermofisher Scientific, Rockford, Ill.) supplemented with phosphatase inhibitor cocktail 2 (Cat# P5726. Sigma, St Louis, Mo.), phosphatase inhibitor cocktail 3 (Cat# P0044. Sigma, St Louis, Mo.) and complete protease inhibitor (Cat#1862209. Thermofisher Scientific, Rockford, Ill.). Complete homogenization was ensured by brief sonication using a Branson Sonifier 150, (Branson Ultrasonics Corporation, Danbury, Conn.). Protein content was quantified with a Pierce BCA protein assay kit per manufacturer's instructions (Cat#23225. Thermofisher Scientific, Rockford, Ill.).
as §3

MMP-9 [6] = target: T1, MMP-9; assay: SensoLyte Fluorimetric MMP-9 Activity Assay; format: biochemical; conditions: GM6001
Text: as §4
Target sequence in this assay (P14780 94-707, species assumed): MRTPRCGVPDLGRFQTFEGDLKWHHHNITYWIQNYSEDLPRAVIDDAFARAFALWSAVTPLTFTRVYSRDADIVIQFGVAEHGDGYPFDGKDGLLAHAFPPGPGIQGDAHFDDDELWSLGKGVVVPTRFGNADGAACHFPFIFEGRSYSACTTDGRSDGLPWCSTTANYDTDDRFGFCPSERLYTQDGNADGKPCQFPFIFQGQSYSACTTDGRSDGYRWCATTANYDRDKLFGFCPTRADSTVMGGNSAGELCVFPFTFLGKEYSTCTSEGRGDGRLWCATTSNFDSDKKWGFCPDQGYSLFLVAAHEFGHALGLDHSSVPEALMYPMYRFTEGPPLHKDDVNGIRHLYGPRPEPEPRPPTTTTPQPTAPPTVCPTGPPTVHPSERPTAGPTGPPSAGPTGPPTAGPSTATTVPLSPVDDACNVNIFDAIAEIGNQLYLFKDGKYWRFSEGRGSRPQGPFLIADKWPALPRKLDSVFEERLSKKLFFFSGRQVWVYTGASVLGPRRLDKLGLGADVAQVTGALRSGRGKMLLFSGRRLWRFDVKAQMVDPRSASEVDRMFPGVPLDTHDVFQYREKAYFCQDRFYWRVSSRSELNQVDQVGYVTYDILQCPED

[7] = Brain distribution of IV infra-red tagged TIMP3 post-TBI; format: in vivo, mouse; conditions: coronal section through impact site, n=2
Text: FIGS. 2A-2B are graphical representations depicting various data relating to intravenous TIMP3 which preserves vulnerable neuronal populations in the hippocampus. (A) Coronal section through the impact site showing target coverage following IV administration of an infra-red tagged TIMP3. Spectrum bar indicates the intensity of the distribution. […] (B) NeuN staining of post-mitotic mature neurons 7 days post-TBI. Representative photomi-crographs of ipsilateral hippocampi from the 3 groups show NeuN staining in the granule cell layer (GCL) and Hilus (HL) of the dentate gyrus. Highlighted area panels show enhanced view of NeuN+ve hilar interneurons. Scale bar=100 μm. Lower panel, quantification of NeuN+ve neurons in the HL. n=4, 4 section per animal, mean±s.e.m. […] (C) DCX staining of neural progenitors/immature neurons 7 days post-TBI. Representative photomi-crographs of ipsilateral hippocampi from the 3 groups showing DCX staining in the subgranule zone (SGZ) of the dentate gyrus. Highlighted area panels show enhanced view of DCX positive immature neurons. […] Lower panel, quantification of DCX+ve neurons, n=4, 4 sections per animal, mean±s.e.m.
Subsequently, the inventors sought to determine the effects IV TIMP3 post-TBI on hippocampal neuronal populations. […] To further examine the effects of TIMP3 on neuronal cells the presence of neural progenitors was quantified by DCX staining. […]

hippocampal neurons = assay: Sholl analysis of isolated hippocampal neurons; format: cell-based, mouse; conditions: shRNA vs scrambled sequence (SCR); 7 days post-transfection
Procedure: as §1
Sholl analysis on processed images of isolated hippocampal neurons was conducted using the Fiji derivation of Image J. (Hypertext Transfer Protocol://Fiji.sc.Fiji). […] After neurites had been traced the images were rendered as an analyzed skeleton and Sholl analysis was run on the image from the Analyze menu option.

mTOR = assay: Real-time PCR of mTOR message in transfected hippocampal neurons; format: cell-based, mouse; conditions: 7 days post-transfection; during TIMP3 treatment; relative to actin
Procedure: Primary hippocampal neuron suspensions were transfected post-trituration and prior to plating. Neurons were ‘Nucleofected’ using a 4D-Nucleofector™ System (Lonza, Walkersville, Md.) in conjunction with a P3 Primary Cell 4D-Nucleofector® X Kit. In brief, 5×10^5 cells were nucleofected with 1.5 μg DNA resuspended in 100 μl of P3 solution after which cells were plated and cultured per normal protocol.
Plasmid vector pENN.AAV.U6.ShRLuc.CMV.eGFP.SV40 was provided by the Penn vector core, University of Pennsylvania, (Philadelphia, Pa.). mTOR shRNA sequence was chosen based on the previous publication by Jaworrski et al (43). Sequence ‘mTOR3071’ was chosen based on complete sequence identity between rat and mouse genes. Scrambled sequence (SCR) was designed using the online scramble design tool by genscript on the World Wide Web at genscript.com/ssl-bin/app/scramble. […]
Cells were lysed using 0.7 mL of QIAzol™ reagent (Qiagen, Valencia Calif.), followed by 15 min centrifugation at 12,000 g at 4° C. […] Quantitative real-time PCR measuring mouse-specific mTOR and Beta-actin (ACTB) genes using Taqman™ real time PCR was performed using the ABI ViiA 7 Real-Time PCR System™. Raw cycle threshold (Ct) numbers of amplified mTOR gene products were normalized to the housekeeping gene ACTB to control for cDNA input amounts. mRNA relative copy number was determined using the comparative Ct method.

In the case of “Recombinant TIMP3 (tissue inhibitor of matrix metalloproteinase-3) (from UniProt P35625 24-211)”, the Sensolyte FRET assay of MMP-9 enzyme activity; TIMP3 concentration that gives full inhibition (MMP-9 [1]) is reported as 1 µg/mL and the Sensolyte FRET assay of MMP-2 enzyme activity; TIMP3 concentration that gives full inhibition (MMP-2 [2]) is reported as 1 µg/mL.

For `CNC(=O)[C@H](Cc1c[nH]c2ccccc12)NC(=O)[C@@H](CC(=O)NO)CC(C)C` [GM6001, reference compound], the “phosphorylation of S6RP (S235/236), western blot” value [3] was “did not result in increased phosphorylation”, the “MMP-2 inhibition (Sensolyte FRET assay)” value (MMP-2 [4]) was “complete MMP inhibition” and the “phosphorylation of Akt (Ser473), western blot” value ([5]; 10 μM GM6001, 15 minutes) was “did not result in increased phosphorylation”. The “MMP-9 inhibition (Sensolyte FRET assay)” value (MMP-9 [6]) was “complete MMP inhibition”.

With `CO[C@H]1C[C@@H]2CC[C@@H](C)[C@@](O)(O2)C(=O)C(=O)N2CCCC[C@H]2C(=O)O[C@H]([C@H](C)C[C@@H]2CC[C@@H](O)[C@H](OC)C2)CC(=O)[C@H](C)/C=C(\C)[C@@H](O)[C@@H](OC)C(=O)[C@H](C)C[C@H](C)/C=C/C=C/C=C/1C` [rapamycin, Rapamycin, reference compound] the “Akt (Ser473) phosphorylation with rapamycin, western blot” value ([5]; rapamycin pre-treatment with TIMP3) was “not inhibited”.

B1: infra-red tagged TIMP3: Infra-red tagged version of recombinant TIMP3, obtained from Amgen Inc. (protein, UniProt P35625 24-211, looked up)
Metalloproteinase inhibitor 3: CTCSPSHPQDAFCNSDIVIRAKVVGKKLVKEGPFGTLVYTIKQMKMYRGFTKMPHVQYIHTEASESLCGLKLEVNKYQYLLTGRVYDGKMYTGLCNFVERWDQLTLSQRKGLNYRYHLGCNCKIKSCYYLPCFVTSKNECLWTDMLSNFGYPGYQSKHYACIRQKGGYCSWYRGWAPPDKSIINATDP
modifications: infra-red dye label
With B1 the “penetrance into the ipsilateral hippocampus after IV administration” value [7] was “penentrance of TIMP3 into the ipsilateral hippocampus”.

B2: shRNA against mTOR: shRNA sequence mTOR3071 (SEQ ID NO: 1) cloned into plasmid pENN.AAV.U6.ShRLuc.CMV.eGFP.SV40 (nucleic acid)
guide: GGAUCCGAGCCACATCCGTCCCTACTTCAAGAGAGTAGGGACGGATGTGGCTCTTTTTGAAUCC
With B2 the “effect on TIMP3-promoted neurite outgrowth (Sholl analysis)” value (hippocampal neurons) was “significantly inhibited the effects of TIMP3 on neurite outgrowth” and the “reduction of mTOR message levels compared to SCR” value (mTOR) was “approximately 50%”.
